Results published in paper PMC12193508.

Columns and labels:
[1] = target: MMsHsp (sHsp of Methanococcus maripaludis) (Methanococcus maripaludis); experiment: AUC; sedimentation velocity at 40 °C, 1.0 mg/mL, 40,000 rpm, Rayleigh interference optics, c(s20,w) with SEDFIT; oligomers of one protein
[2] = target: MMsHsp (sHsp of Methanococcus maripaludis) (Methanococcus maripaludis); experiment: AUC; sedimentation velocity at 40 °C, 0.1 mg/mL, 40,000 rpm, Rayleigh interference optics, c(s20,w) with SEDFIT; oligomers of one protein

stoichiometry N [1]: 16 | w, weight fraction of peak a (N 2) [1]: 16.8% | w, weight fraction of peak b (N 8) [1]: 4.6% | w, weight fraction of peak c (N 17) [1]: 5.3% | w, weight fraction of peak d (N 24) [1]: 73.3% | w, weight fraction of peak a (N 2) [2]: 31.3% | w, weight fraction of peak b (N 8) [2]: 4.2% | w, weight fraction of peak c (N 18) [2]: 10.9% | w, weight fraction of peak d (N 24) [2]: 53.6%
Substance: MMsHsp (sHsp of Methanococcus maripaludis) (natural protein)
